# Measured values from the DeepSol protein solubility set.
# Assay: soluble on expression in E. coli; label from the status in PepcDB or PDB records
row,Sequence,soluble on expression in E. coli
1,TDIVLWDKPGEKVLLLGNQAIVRGALEGNIGVYAAYPGTPSSEITDTMAMVAKKAGVYMEYSTNEKVAFETALSASWAGLRAMTAMKHVGLNVAMDSFMTVSYMGINGGLIVVVADDPSMWSSQNEQDTRAIAKFANIPVLEPSSVQEAKDMVKYAFEISEKYGQMVILRTTTRSSHMRGDVVLGELPQEIKEGKRKFGNFKKNPEKYVDIPAFQRPKHPWLLETIEKFREEFNTSPFNWIEGPEDAKVGIIAPGLSYAYVKEALAWLGIDNVKILKLGTPFPVPYGLLEKFFNGLERVLIVEELEPVVEEQVKVWAFDNNINIEIHGKDLVPRVYEMTTRRAVEAVAKFLGVETPINFQEIDEKYKKVQEMVPPRPPSLCPACPHRNTFFAIRKAATPRAIFPSDIGCYTLGVLPPLKTVDTTIAMGGSIGVAHGLSIALNGALGEEQRKTGKEKKIIVATIGDSTFFHTGLPALANAIYNRSNVLIVVMDNMVTAMTGDQPNPGTGETPHGPGKRILIEEVARAMGADFVAVVDPYDIKETYETIKKALEVEGVSVVVSRRACALYRIGQLRREGKQWPIYQVNEEKCTGCKICINAYGCPAIYWDAEK,not soluble
2,TDRVIMSIFTSDKLVDQSWGSLAYLAQLHVEKKFPVDIELYSEVDTIEKMEESLHASIDRKTELIIGHGREFSDIFTKVAPSYPTVRFVTIHGSATYENQTVYTFEKGKIELIAALAATMKSKTRKVALIDAYDGREDEPYFERGLEKYANDIEFFYYVVNSRHDGKQAKAVMDKLIKEGVDVVYSRGNAFNRDVIHYAKQHDIYVIGFLDDQSYLGEEHVLTSVLNDVTQAYVKI,not soluble
3,TGRVKWTLGGNIYLNRNKVDDISGNELLGTSYLAGGGVFSQSIHITKAGYPVGSFYGYVVDGVYQNEAEAKLAPFDTPQATPGSLRFKDISGPDGLPDGKITSDDMTIIGTAEPKFNYGINSELSWKGLTLSMIFTGRVGGDIANLNRYFLDSFTDTNDNIRAEAWEGRWQGEGTSNFYPAVNGSQGSSYFNKRFSTFLLEDGSFFRLKNLTLAYQFSLKKLRWLRSVRVFGTVTNVFTITNYSGYDPEVSITSGAMSPNVDYAAYPSSRTYSMGINLAF,not soluble
4,TIEARTAQSTPSAPPQKVMCVSMGSTTVRVSWVPPPADSRNGVITQYSVAYEAVDGEDRGRHVVDGISREHSSWDLVGLEKWTEYRVWVRAHTDVGPGPESSPVLVRTDEDVPSGPPRKVE,soluble
5,TLDEVKSLWDPRGISGTETASPQSDTPQAVSGASQPRWLRLSNGKQVDLRDWKVVLFMQGHCPYCHKFDPVLKQLAGQYGFSVFSYTIDGQGDDAFPEALPAPPDVMQTFFPNIPVATPTTFLVNVNTLAAYPILQGATDAQGFMARVDTVFQ,not soluble
6,TMLSFVTTDANIDHGHLQGALSAITNETFNRITVDGDTSTNDMVVVMASGLAENETLTPEHPDWANFYKALQLACEDLAKQIARDGEGATKLIEVEVTGAANDQEAGMVAKQIVGSDLVKTAIYGADANWGRIICAIGYSGCEVNQETIDIAIGPIVTLKQSEPTGFSEEEATAYLKEADPVKISVNLHIGNGTGKAWGCDLTYDYVRINAGYRT,soluble
7,TNAVNIVMRQPTTPNFSSALNITSANEGGSAMQIRGVEKALGTLKITHENPSVDKEYDENAAALSIDIVKKQKGGKGTAAQGIYINSTSGTAGKMLRIRNKNKDKFYVGPDGDFWSCASSIVDGNLTVKDPTSGKHAATKDYVDEKIAELKKLILKK,soluble
8,TNTEQFCTGCHEMRDNVYAELKGTIHYTNRSGVRAICSDCHVPHNWTDKIARKTQASKEVWGKIFGTINTREKFVEKRLELAQHEWARLKANDSLECRNCHNYESMDFTRQSMRAQNMHSTYLADKSKTCIDCHKGIAHTLPRMPPDQTSLAPPAAGPARADTGHAER,not soluble
9,TPLLKTEFFPQSDNGYIQIQAEYPVGTGVNLPRAFALRMIDSWEKEIPEIDRTSFSVGQAEASSMFAAMQDNGTNIITFHIGLTGRNERKRSMNEVADQIRTMLDDYPEIHSYKVTPGGSGGGMGGQPTVNLDIYGYDFNKTGDLAERFSRLMKEDARCAQATISRKDYVPEYQFVFDRTKLAENGLNSTTAAMFLRNRVNGRVASTYREEGDEYDIRVRLAPEFRRSLRDLENILIYTPQGKGVRLGELGKIEELYTPPTIERKDRQRVVIVASTAVKGAALSDLVEVAKEKIAQLEIPDGIDYKISGTYEDQQKTFAD,not soluble
10,TPMYESTSELYVLSKSTSITSLADIQTGTSLTNDYIVVVKGRPVLDQVIENLNLNESYKTLGGRVTLDNPSNSRVLNITVTDPDPQMAKTIADEIAKVASAYIAEKMKQDPPTIIQSGYDDGGAVSPNIGKNT,not soluble
